Experimental data: patent US20220204638A1, “Combination Therapies Comprising Daratumumab, Bortezomib, Thalidomide and Dexamethasone and Their Uses” (Janssen Biotech, Inc., priority 2019, published 2022)

Experiments:
NK cells = assay: Pharmacodynamics, NK cell counts; assay type: in vivo, human; conditions: peripheral whole blood and bone marrow
Source text: NK cells express CD38 and are susceptible to daratumumab mediated cell lysis.

multiple myeloma = assay: Clinical trials pooled, monotherapy and combination treatments (N=2,066); assay type: in vivo, human
[1] = Clinical pharmacokinetic drug-drug interaction assessments; conditions: human, in vivo
[2] = tested on: relapsed or refractory multiple myeloma; assay: SIRIUS (NCT01985126) open-label DARZALEX monotherapy trial; assay type: in vivo, human
Source text: (§1) Treatment continued until unacceptable toxicity or disease progression.
The median patient age was 63.5 years (range: 31 to 84 years), 49% were male and 79% were Caucasian. Patients had received a median of 5 prior lines of therapy. […] Prior therapies included bortezomib (99%), lenalidomide (99%), pomalidomide (63%) and carfilzomib (50%).

[3] = Clinical pharmacokinetics of daratumumab; assay type: in vivo, human
Source text: Daratumumab volume of distribution was 4.7±1.3 L as monotherapy and 4.4±1.5 L as combination therapy following administration of the approved dosage.
Daratumumab clearance decreased with increasing dose and with multiple dosing.
The effect of severe (total bilirubin>3 times ULN and any AST) hepatic impairment on daratumumab pharmacokinetics is unknown.

[4] = Immunogenicity, anti-daratumumab antibodies in clinical trials; assay type: in vivo, human
Source text: As with all therapeutic proteins, there is the potential for immunogenicity. The detection of antibody formation is highly dependent on the sensitivity and specificity of the assay. Additionally, the observed incidence of antibody (including neutralizing antibody) positivity in an assay may be influenced by several factors including assay methodology, sample handling, timing of sample collection, concomitant medications, and underlying disease. For these reasons, comparison of the incidence of antibodies to daratumumab in the studies described below with the incidence of antibodies in other studies or to other products may be misleading. […] One patient administered DARZALEX as combination therapy, developed transient neutralizing antibodies against daratumumab. However, this assay has limitations in detecting anti-daratumumab antibodies in the presence of high concentrations of daratumumab; therefore, the incidence of antibody development might not have been reliably determined.

CD38 on red blood cells = target: T1, CD38 on red blood cells (Homo sapiens, UniProt P28907); assay: Interference with Indirect Antiglobulin Test (Indirect Coombs test)
T1 construct: endogenous in cells; host or cells: red blood cells (reagent RBCs used in serological testing)
Source text: Daratumumab binds to CD38 on red blood cells (RBCs) and results in a positive Indirect Antiglobulin Test (Indirect Coombs test). Daratumumab-mediated positive indirect antiglobulin test may persist for up to 6 months after the last daratumumab infusion. Daratumumab bound to RBCs masks detection of antibodies to minor antigens in the patient's serum [see References (15)]. The determination of a patient's ABO and Rh blood type are not impacted [see Drug Interactions (7.1)].
Daratumumab binds to CD38 on RBCs and interferes with compatibility testing, including antibody screening and cross matching. Daratumumab interference mitigation methods include treating reagent RBCs with dithiothreitol (DTT) to disrupt daratumumab binding [see References (15)] or genotyping. Since the Kell blood group system is also sensitive to DTT treatment, K-negative units should be supplied after ruling out or identifying alloantibodies using DTT-treated RBCs.

[5] = tested on: relapsed and refractory multiple myeloma; assay: DARZALEX monotherapy safety, three open-label clinical trials (N=156); assay type: in vivo, human
Source text: Serious adverse reactions were reported in 51 (33%) patients.
Table 23 describes Grade 3-4 laboratory abnormalities reported at a rate of ≥10%.

[6] = tested on: multiple myeloma, prior PI and immunomodulatory agent; assay: EQUULEUS (NCT01998971) open-label trial, DARZALEX with pomalidomide and dexamethasone
Procedure: In [sequence], patients receiving daratumumab combination treatment (n=97) were administered the first 16 mg/kg daratumumab dose at Week 1 split over two days i.e. 8 mg/kg on Day 1 and Day 2 respectively.
Pomalidomide (4 mg once daily orally on Days 1-21 of repeated 28-day [4-week] cycles) was given with low dose oral or intravenous dexamethasone 40 mg/week (reduced dose of 20 mg/week for patients>75 years or BMI<18.5).
The median patient age was 64 years (range: 35 to 86 years) with 8% of patients≥75 years of age. Patients in the study had received a median of 4 prior lines of therapy. Seventy-four percent (74%) of patients had received prior ASCT. Ninety-eight percent (98%) of patients received prior bortezomib treatment, and 33% of patients received prior carfilzomib. All patients received prior lenalidomide treatment, with 98% of patients previously treated with the combination of bortezomib and lenalidomide. Eighty nine percent (89%) of patients were refractory to lenalidomide and 71% refractory to bortezomib; 64% of patients were refractory to bortezomib and lenalidomide.

[7] = tested on: relapsed or refractory multiple myeloma; assay: GEN501 (NCT00574288) open-label dose escalation monotherapy trial; assay type: in vivo, human
Source text: as §1
Seventy-four percent of patients had received prior ASCT. Prior therapies included bortezomib (100%), lenalidomide (95%), pomalidomide (36%) and carfilzomib (19%).

[8] = Storage of diluted DARZALEX solution; assay type: physicochemical
Source text: Prepare the solution for infusion using aseptic technique as follows: • Calculate the dose (mg), total volume (mL) of DARZALEX solution required and the number of DARZALEX vials needed based on patient actual body weight. • Check that the DARZALEX solution is colorless to pale yellow. […] Infusion bags/containers must be made of either polyvinylchloride (PVC), polypropylene (PP), polyethylene (PE) or polyolefin blend (PP+PE). Dilute under appropriate aseptic conditions. Discard any unused portion left in the vial. • Gently invert the bag/container to mix the solution. […] The diluted solution may develop very small, translucent to white proteinaceous particles, as daratumumab is a protein. […] (59° F.-77° F.) and in room light. Diluted solution may be kept at room temperature for a maximum of 15 hours (including infusion time). • If not used immediately, the diluted solution can be stored prior to administration for up to 24 hours at refrigerated conditions 2° C.-8° C. (36° F.-46° F.) and protected from light.

Substance: DARZALEX: IgG1κ human monoclonal antibody against CD38, HC SEQ ID NO: 9 and LC SEQ ID NO: 10
- absolute counts and percentages of total and activated NK cells (NK cells): Decreases
- Grade 3/4 infusion reaction at Week 2 or subsequent infusions (multiple myeloma; human, in vivo): Less than 1%
- incidence of any grade infusion reactions, Week 2 infusion (multiple myeloma; human, in vivo): 2%
- incidence of any grade infusion reactions, first (16 mg/kg, Week 1) infusion (multiple myeloma; human, in vivo): 37%
- incidence of any grade infusion reactions, subsequent infusions (cumulative) (multiple myeloma; human, in vivo): 6%
- time after completing infusion within which nearly all reactions occurred (multiple myeloma; human, in vivo): ≤ 4 h
- patients who experienced an infusion reaction (multiple myeloma; in clinical trials): approximately half
- time after infusion at which infusion reactions occurred (multiple myeloma; prior to the introduction of post-infusion medication): up to 48 hours
- drug-drug interactions with lenalidomide, pomalidomide, bortezomib and dexamethasone [1]: no clinically relevant drug-drug interactions
- Overall response rate (ORR) ([2]; Independent Review Committee, IMWG criteria): 31 (29.2%)
- Complete response (CR) ([2]; in vivo): 0
- Partial response (PR) ([2]; in vivo): 18 (17.0%)
- Stringent complete response (sCR) ([2]; in vivo): 3 (2.8%)
- Very good partial response (VGPR) ([2]; in vivo): 10 (9.4%)
- median duration of response ([2]; in vivo): 7.4 months
- median time to response ([2]; in vivo): 1 month
- mean serum Cmax at end of weekly dosing compared to first dose ([3]; approved recommended dosage, monotherapy or combination): 2.7 to 3 fold
- Terminal half-life ([3]; combination therapy vs monotherapy): similar
- trough serum concentration (Cmin) at end of weekly dosing, mean±SD ([3]; monotherapy): 573 ± 332 µg/mL
- linear clearance, mean±SD ([3]; monotherapy, estimated): 171.4 ± 95.3 mL/day
- terminal half-life associated with linear clearance, mean±SD ([3]; monotherapy, estimated): 18 ± 9 days
- pharmacokinetics in specific populations ([3]; sex, age, mild and moderate hepatic impairment, renal impairment): No clinically significant differences
- transient neutralizing antibodies against daratumumab ([4]; combination therapy): One patient
- patients positive for anti-daratumumab antibodies ([4]; of the 1,050 evaluable combination therapy patients): 2
- persistence of positive indirect antiglobulin test after the last infusion (CD38 on red blood cells): up to 6 months
- Serious adverse reactions ([5]; 16 mg/kg monotherapy): 33%
- Arthralgia, Any Grade ([5]; human, in vivo): 17%
- Arthralgia, Grade 3 ([5]; human, in vivo): 0%
- Arthralgia, Grade 4 ([5]; human, in vivo): 0%
- Back pain, Any Grade ([5]; human, in vivo): 23%
- Back pain, Grade 3 ([5]; human, in vivo): 2%
- Back pain, Grade 4 ([5]; human, in vivo): 0%
- Chills, Any Grade ([5]; human, in vivo): 10%
- Chills, Grade 3 ([5]; human, in vivo): 0%
- Chills, Grade 4 ([5]; human, in vivo): 0%
- Constipation, Any Grade ([5]; human, in vivo): 15%
- Constipation, Grade 3 ([5]; human, in vivo): 0%
- Constipation, Grade 4 ([5]; human, in vivo): 0%
- Cough, Any Grade ([5]; human, in vivo): 21%
- Cough, Grade 3 ([5]; human, in vivo): 0%
- Cough, Grade 4 ([5]; human, in vivo): 0%
- Decreased appetite, Any Grade ([5]; human, in vivo): 15%
- Decreased appetite, Grade 3 ([5]; human, in vivo): 1%
- Decreased appetite, Grade 4 ([5]; human, in vivo): 0%
- Diarrhea, Any Grade ([5]; human, in vivo): 16%
- Diarrhea, Grade 3 ([5]; human, in vivo): 1%
- Diarrhea, Grade 4 ([5]; human, in vivo): 0%
- Dyspnea, Any Grade ([5]; human, in vivo): 15%
- Dyspnea, Grade 3 ([5]; human, in vivo): 1%
- Dyspnea, Grade 4 ([5]; human, in vivo): 0%
- Fatigue, Any Grade ([5]; human, in vivo): 39%
- Fatigue, Grade 3 ([5]; human, in vivo): 2%
- Fatigue, Grade 4 ([5]; human, in vivo): 0%
- Headache, Any Grade ([5]; human, in vivo): 12%
- Headache, Grade 3 ([5]; human, in vivo): 1%
- Headache, Grade 4 ([5]; human, in vivo): 0%
- Hypertension, Any Grade ([5]; human, in vivo): 10%
- Hypertension, Grade 3 ([5]; human, in vivo): 5%
- Hypertension, Grade 4 ([5]; human, in vivo): 0%
- Infusion reaction, Any Grade ([5]; human, in vivo): 48%
- Infusion reaction, Grade 3 ([5]; human, in vivo): 3%
- Infusion reaction, Grade 4 ([5]; human, in vivo): 0%
- Musculoskeletal chest pain, Any Grade ([5]; human, in vivo): 12%
- Musculoskeletal chest pain, Grade 3 ([5]; human, in vivo): 1%
- Musculoskeletal chest pain, Grade 4 ([5]; human, in vivo): 0%
- Nasal congestion, Any Grade ([5]; human, in vivo): 17%
- Nasal congestion, Grade 3 ([5]; human, in vivo): 0%
- Nasal congestion, Grade 4 ([5]; human, in vivo): 0%
- Nasopharyngitis, Any Grade ([5]; human, in vivo): 15%
- Nasopharyngitis, Grade 3 ([5]; human, in vivo): 0%
- Nasopharyngitis, Grade 4 ([5]; human, in vivo): 0%
- Nausea, Any Grade ([5]; human, in vivo): 27%
- Nausea, Grade 3 ([5]; human, in vivo): 0%
- Nausea, Grade 4 ([5]; human, in vivo): 0%
- Pain in extremity, Any Grade ([5]; human, in vivo): 15%
- Pain in extremity, Grade 3 ([5]; human, in vivo): 1%
- Pain in extremity, Grade 4 ([5]; human, in vivo): 0%
- Pneumonia, Any Grade ([5]; human, in vivo): 11%
- Pneumonia, Grade 3 ([5]; human, in vivo): 6%
- Pneumonia, Grade 4 ([5]; human, in vivo): 0%
- Pyrexia, Any Grade ([5]; human, in vivo): 21%
- Pyrexia, Grade 3 ([5]; human, in vivo): 1%
- Pyrexia, Grade 4 ([5]; human, in vivo): 0%
- Serious adverse reaction, general physical health deterioration ([5]; human, in vivo): 3%
- Serious adverse reaction, pneumonia ([5]; human, in vivo): 6%
- Serious adverse reaction, pyrexia ([5]; human, in vivo): 3%
- Upper respiratory tract infection, Any Grade ([5]; human, in vivo): 20%
- Upper respiratory tract infection, Grade 3 ([5]; human, in vivo): 1%
- Upper respiratory tract infection, Grade 4 ([5]; human, in vivo): 0%
- Vomiting, Any Grade ([5]; human, in vivo): 14%
- Vomiting, Grade 3 ([5]; human, in vivo): 0%
- Vomiting, Grade 4 ([5]; human, in vivo): 0%
- discontinuations due to adverse reactions ([5]; human, in vivo): 4%
- treatment delay due to adverse reactions ([5]; human, in vivo): 15%
- Anemia, Any Grade ([5]; lab abnormality): 45%
- Anemia, Grade 3 ([5]; lab abnormality): 19%
- Anemia, Grade 4 ([5]; lab abnormality): 0%
- Lymphopenia, Any Grade ([5]; lab abnormality): 72%
- Lymphopenia, Grade 3 ([5]; lab abnormality): 30%
- Lymphopenia, Grade 4 ([5]; lab abnormality): 10%
- Neutropenia, Any Grade ([5]; lab abnormality): 60%
- Neutropenia, Grade 3 ([5]; lab abnormality): 17%
- Neutropenia, Grade 4 ([5]; lab abnormality): 3%
- Thrombocytopenia, Any Grade ([5]; lab abnormality): 48%
- Thrombocytopenia, Grade 3 ([5]; lab abnormality): 10%
- Thrombocytopenia, Grade 4 ([5]; lab abnormality): 8%
- incidence of any grade infusion-related reactions ([6]; combination treatment (n=97), first 16 mg/kg dose split over two days): 42%
- infusion reactions on Day 2 of Week 1 ([6]; split first dose): 4%
- infusion reactions with subsequent infusions ([6]; split first dose): 8%
- Overall response rate ([7]; 16 mg/kg, 42 patients): 36%
- number of CR ([7]; 16 mg/kg, 42 patients): 1
- number of VGPR ([7]; 16 mg/kg, 42 patients): 3
- median duration of response ([7]; in vivo): not estimable
- median time to response ([7]; in vivo): 1 month
- time diluted solution can be stored refrigerated ([8]; 2-8 °C, protected from light): up to 24 hours
- time diluted solution may be kept at room temperature ([8]; 15-25 °C, including infusion time): ≤ 15 h
